Results from patent US8241646B2, “Method for generating active antibodies against a resistance antigen, antibodies obtained by said method and their uses” (Pierre Fabre Medicament, priority 2006, dated 2012).

Legend:
[1] = system: different cell lines; assay: Recognition of different cell lines by the antibodies with the FACSCAN instrument; type: cell-based; details: FACSCAN analysis of a panel of tumor lines
From the text: The hybridomas secreting antibodies recognizing the resistant tissues, and recognizing neither the tumors from the control batch PBS nor the native A549 cell which was used for establishing the tumor in vivo, are cloned and frozen. The antibodies are then produced in ascite liquid, purified, retested in immunohistochemistry before being tested in vivo on cells expressing a surface structure or antigen recognized by the antibodies (these cells were selected beforehand by FACSCAN analysis of a non-exhaustive panel of tumor lines available for each antibody).
Table 6 below as for it, groups the cells recognized by these antibodies (Recognition of the antibodies selected in histology with the FACSCAN instrument, of different cell lines).

[2] = system: BxPC3 cells; assay: Pancreas xenograft model BxPC3; type: in vivo, athymic "Nude" mice; details: 1 mg/dose two times a week; results in FIG. 7
Protocol: 10.10^6 BxPC3 cells are grafted on athymic “Nude” mice. Five days after the grafting, the tumors are measurable and the mice are divided into two batches of six mice with tumors of homogenous size. The mice are either treated with PBS (negative control) or with the antibody 2E11 (1 mg/dose), two times a week. Tumor volume tracking is carried out twice a week.
The results are illustrated in FIG. 7.

B1: 2E11: monoclonal antibody, heavy chain SEQ ID No. 23, light chain SEQ ID No. 24; hybridoma CNCM I-3615; IgG1 k (antibody, V domains shown)
VH: EVQLQQSGAEVVKPGASVKLSCTASGFNIKDTYMHWVKQRPEQGLEWIGRIDPANGNTKSDPKFQGKAIKTADTSSNTAYLQLSSLTSEDTAVYYCTSGYTNYVWFTYWGQGTLVTVSA
VL: DIVMSQSPSSLAVAAGEKVTMSCKASQSLLNSRTRKNYLAWYQQKPGQSPKLLIYWASTRESGVPDRFTGSGSGTDFSLTISSVQAEDLAVYYCKQSYNLYTFGGGTKLEIK
modifications: mus musculus
notes: hybridoma CNCM I-3615; IgG1 k
In vivo model (cells recognized by these antibodies) [1]: HT29/BxPC3/H69
anti-tumoral activity (tumor volume) [2]: validate the functional activity

B2: 3C11: monoclonal antibody, heavy chain SEQ ID No. 31, light chain SEQ ID No. 32; hybridoma CNCM I-3614; IgM k (antibody, V domains shown)
VH: QVQLKESGPGLVAPSQSLSITCTVSGFSLSSYGVHWVRQPPGKGLEWLGVIWVGGTTNFKSALMSRLSISKDNSKSQVFLKMNSLQTDDTAMYYCARERPYGNPLVDWGQGTLVTVSA
VL: DIVMTQSHKFMSTSVGDRVSITCKASQDVSTAVAWYQQKPGQSPKLLIYSASYRYTGVPDRFTGSGSGTDFTFTISSVQAEDLAVYYCQQHYSNPRTFGGGTKLEIK
modifications: mus musculus
notes: hybridoma CNCM I-3614; IgM k
In vivo model (cells recognized by these antibodies) [1]: Colo205

B3: 3G7: monoclonal antibody, heavy chain SEQ ID No. 39, light chain SEQ ID No. 40; hybridoma CNCM I-3616; IgM (antibody, V domains shown)
VH: QVQLQQSGPELVRPGTSVKISCKASGYTFTNYWLGWVKQRPGHGLEWIGDIFPGGIYTNYNEKIKGEATLTADTSSSTAYLQLSSLTSEDSFVYFCARFDDFDPFFASWGQGTLVTVSA
VL: DVLMTQTPLSLPVSLGDQASISCRSSQTIVHSNGNTYLEWYLQKPGQSPKLLIYKVSNRFSGVPDRFSGSGSGTDFTLNISRVEAEDLGIYYCFQSSRVPYTFGGGTKLEIK
modifications: mus musculus
notes: hybridoma CNCM I-3616; IgM
In vivo model (cells recognized by these antibodies) [1]: DU145

B4: 1A6: monoclonal antibody, heavy chain SEQ ID No. 7, light chain SEQ ID No. 8; hybridoma CNCM I-3612; IgM k (antibody, V domains shown)
VH: EVQLQQSGPELVKPGASVKISCKTSGYTFTEYTLHWVKQSHGKSLEWIGGIDPNNGGTSYNQKFKGKATLTVDKSSSTAYMELRSLTSEDSAVYLCARSNSYYFDYWGQGTTLTVSS
VL: DIQMTQTTSSLSASLGDSVTISCRARQDIRNFLNWYQQRPDGTVKLLIYYTSRLHSGVPSRFSGSGSGTDYSLTISNLDQEDVATYFCQQGNTLPFTFGSGTKLEIK
modifications: mus musculus
notes: hybridoma CNCM I-3612; IgM k
In vivo model (cells recognized by these antibodies) ([1]; clone D10): LnCap/HT29

B5: 1A9: monoclonal antibody, heavy chain SEQ ID No. 15, light chain SEQ ID No. 16; hybridoma CNCM I-3613; IgG1 k (antibody, V domains shown)
VH: QIQLVQSGPELKKPGETVKISCKASGQTFTNYGMNWVKQAPGKGLKWMGWINTYTGEPTYADDFKGRFAFSLETSASTAYLQINNLKNEDTATYFCARGGYYRYAAYWGQGTLVTVSA
VL: DIQMTQSPASLSASVGETVTITCRASGNIHNYLAWYQQKQGKSPQLLVYNAKTLADGVPSRFSGSGSGTQYSLKINSLQPEDFGCYFCQHFWTTPYTFGGGTKLELI
modifications: mus musculus
notes: hybridoma CNCM I-3613; IgG1 k
In vivo model (cells recognized by these antibodies) [1]: HepG2/H69/LnCap
